Test results published in patent US20200385425A1.

Target: PDZ1/2 domain (Homo sapiens (Human)) (UniProt P78352)
Assay: SPR, Biacore 3000, PDZ1/2 amine-coupled on CM5 chip, peptide as analyte, 1:1 binding model

Chain of PDZ1/2 domain (Homo sapiens (Human)) (P78352 65-246 limits assumed): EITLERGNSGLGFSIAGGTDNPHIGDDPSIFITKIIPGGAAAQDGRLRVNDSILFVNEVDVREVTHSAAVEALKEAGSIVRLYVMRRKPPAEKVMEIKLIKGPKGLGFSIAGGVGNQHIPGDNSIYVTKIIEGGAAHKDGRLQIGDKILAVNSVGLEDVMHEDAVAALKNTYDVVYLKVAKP

control chimeric peptide NA-1 showed a Kd of 75.3 nM.
